Data from the supplement of paper PMC10567573.

B1: TRAF3IP2 (parent)
chain: PGQPLPGASVRGLHPVQKVILNYP

Variants of: B1
Experiment: protein stability index of a GFP-peptide fusion (GPS, HEK-293T) (PSI 1-6); higher = more stable
Conditions: c terminus: a fixed tail appended
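Further: lentivirally expressed fusions sorted by FACS into six bins by GFP to DsRed ratio, PSI derived from sequencing read proportions per bin multiplied by bin number.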

**Q.** For PDQPLPGASVRGLHPVQKVILNYP [G2D], which protein stability index is on record?
**A.** 4.21

**Q.** Which protein stability index does the source give for PGQLLPGASVRGLHPVQKVILNYP [P4L] here?
**A.** 2.66

**Q.** Which protein stability index does the source give for PGQCLPGASVRGLHPVQKVILNYP [P4C] here?
**A.** 2.73

**Q.** For PGQDLPGASVRGLHPVQKVILNYP [P4D], which protein stability index is on record?
**A.** 3.03

**Q.** With PGQILPGASVRGLHPVQKVILNYP [P4I] as the variant, how does the protein stability index read?
**A.** 2.41

**Q.** With PGQRLPGASVRGLHPVQKVILNYP [P4R] as the variant, how does the protein stability index read?
**A.** 3.21

**Q.** Which protein stability index does the source give for PGQSLPGASVRGLHPVQKVILNYP [P4S] here?
**A.** 2.6

**Q.** Which protein stability index does the source give for PGQTLPGASVRGLHPVQKVILNYP [P4T] here?
**A.** 4.15

**Q.** With PGQALPGASVRGLHPVQKVILNYP [P4A] as the variant, how does the protein stability index read?
**A.** 3.17

**Q.** Which protein stability index does the source give for PGQGLPGASVRGLHPVQKVILNYP [P4G] here?
**A.** 2.22

**Q.** Which protein stability index does the source give for PGQWLPGASVRGLHPVQKVILNYP [P4W] here?
**A.** 2.84

**Q.** Which protein stability index does the source give for PGQFLPGASVRGLHPVQKVILNYP [P4F] here?
**A.** 2.92

**Q.** For PGQVLPGASVRGLHPVQKVILNYP [P4V], which protein stability index is on record?
**A.** 2.69

**Q.** For PGQQLPGASVRGLHPVQKVILNYP [P4Q], which protein stability index is on record?
**A.** 3.29

**Q.** For PGQHLPGASVRGLHPVQKVILNYP [P4H], which protein stability index is on record?
**A.** 3.08

**Q.** For PGQKLPGASVRGLHPVQKVILNYP [P4K], which protein stability index is on record?
**A.** 2.69

**Q.** With PGQELPGASVRGLHPVQKVILNYP [P4E] as the variant, how does the protein stability index read?
**A.** 3.52

**Q.** For PGQNLPGASVRGLHPVQKVILNYP [P4N], which protein stability index is on record?
**A.** 2.06

**Q.** For PGQMLPGASVRGLHPVQKVILNYP [P4M], which protein stability index is on record?
**A.** 3

**Q.** For PGQYLPGASVRGLHPVQKVILNYP [P4Y], which protein stability index is on record?
**A.** 2.77

**Q.** For PGQPLQGASVRGLHPVQKVILNYP [P6Q], which protein stability index is on record?
**A.** 3.46

**Q.** For PGQPLDGASVRGLHPVQKVILNYP [P6D], which protein stability index is on record?
**A.** 3.37

**Q.** For PGQPLFGASVRGLHPVQKVILNYP [P6F], which protein stability index is on record?
**A.** 3.17

**Q.** With PGQPLEGASVRGLHPVQKVILNYP [P6E] as the variant, how does the protein stability index read?
**A.** 3.69

**Q.** Which protein stability index does the source give for PGQPLLGASVRGLHPVQKVILNYP [P6L] here?
**A.** 2.42

**Q.** Which protein stability index does the source give for PGQPLAGASVRGLHPVQKVILNYP [P6A] here?
**A.** 3.49

**Q.** With PGQPLKGASVRGLHPVQKVILNYP [P6K] as the variant, how does the protein stability index read?
**A.** 2.54

**Q.** For PGQPLCGASVRGLHPVQKVILNYP [P6C], which protein stability index is on record?
**A.** 2.08

**Q.** Which protein stability index does the source give for PGQPLGGASVRGLHPVQKVILNYP [P6G] here?
**A.** 2.5

**Q.** For PGQPLVGASVRGLHPVQKVILNYP [P6V], which protein stability index is on record?
**A.** 3.46

**Q.** Which protein stability index does the source give for PGQPLSGASVRGLHPVQKVILNYP [P6S] here?
**A.** 3.14

**Q.** With PGQPLIGASVRGLHPVQKVILNYP [P6I] as the variant, how does the protein stability index read?
**A.** 2.79

**Q.** Which protein stability index does the source give for PGQPLRGASVRGLHPVQKVILNYP [P6R] here?
**A.** 3.63

**Q.** For PGQPLTGASVRGLHPVQKVILNYP [P6T], which protein stability index is on record?
**A.** 3.21

**Q.** Which protein stability index does the source give for PGQPLNGASVRGLHPVQKVILNYP [P6N] here?
**A.** 3.21

**Q.** For PGQPLHGASVRGLHPVQKVILNYP [P6H], which protein stability index is on record?
**A.** 3.44

**Q.** With PGQPLMGASVRGLHPVQKVILNYP [P6M] as the variant, how does the protein stability index read?
**A.** 3.09

**Q.** With PGQPLWGASVRGLHPVQKVILNYP [P6W] as the variant, how does the protein stability index read?
**A.** 2.53

**Q.** Which protein stability index does the source give for PGQPLYGASVRGLHPVQKVILNYP [P6Y] here?
**A.** 2.72

**Q.** For PGQPLPAASVRGLHPVQKVILNYP [G7A], which protein stability index is on record?
**A.** 3.02

**Q.** With PGRPLPGASVRGLHPVQKVILNYP [Q3R] as the variant, how does the protein stability index read?
**A.** 3.11

**Q.** Which protein stability index does the source give for PGPPLPGASVRGLHPVQKVILNYP [Q3P] here?
**A.** 3.57

**Q.** For PGIPLPGASVRGLHPVQKVILNYP [Q3I], which protein stability index is on record?
**A.** 2.88

**Q.** For PGCPLPGASVRGLHPVQKVILNYP [Q3C], which protein stability index is on record?
**A.** 2.71

**Q.** For PGSPLPGASVRGLHPVQKVILNYP [Q3S], which protein stability index is on record?
**A.** 3.97

**Q.** With PGHPLPGASVRGLHPVQKVILNYP [Q3H] as the variant, how does the protein stability index read?
**A.** 2.72

**Q.** Which protein stability index does the source give for PGKPLPGASVRGLHPVQKVILNYP [Q3K] here?
**A.** 3.09

**Q.** Which protein stability index does the source give for PGEPLPGASVRGLHPVQKVILNYP [Q3E] here?
**A.** 3.65

**Q.** Which protein stability index does the source give for PGDPLPGASVRGLHPVQKVILNYP [Q3D] here?
**A.** 3.15

**Q.** Which protein stability index does the source give for PGGPLPGASVRGLHPVQKVILNYP [Q3G] here?
**A.** 4.09

**Q.** Which protein stability index does the source give for PGFPLPGASVRGLHPVQKVILNYP [Q3F] here?
**A.** 2.42

**Q.** Which protein stability index does the source give for PGAPLPGASVRGLHPVQKVILNYP [Q3A] here?
**A.** 3.28

**Q.** For PGMPLPGASVRGLHPVQKVILNYP [Q3M], which protein stability index is on record?
**A.** 3.34

**Q.** With PGTPLPGASVRGLHPVQKVILNYP [Q3T] as the variant, how does the protein stability index read?
**A.** 3.12

**Q.** Which protein stability index does the source give for PGVPLPGASVRGLHPVQKVILNYP [Q3V] here?
**A.** 3.42

**Q.** For PGWPLPGASVRGLHPVQKVILNYP [Q3W], which protein stability index is on record?
**A.** 2.31

**Q.** With PGNPLPGASVRGLHPVQKVILNYP [Q3N] as the variant, how does the protein stability index read?
**A.** 3.28

**Q.** Which protein stability index does the source give for PGLPLPGASVRGLHPVQKVILNYP [Q3L] here?
**A.** 2.96

**Q.** With PGYPLPGASVRGLHPVQKVILNYP [Q3Y] as the variant, how does the protein stability index read?
**A.** 2.41

**Q.** Which protein stability index does the source give for HGQPLPGASVRGLHPVQKVILNYP [P1H] here?
**A.** 3.31

**Q.** With TGQPLPGASVRGLHPVQKVILNYP [P1T] as the variant, how does the protein stability index read?
**A.** 2.65

**Q.** With WGQPLPGASVRGLHPVQKVILNYP [P1W] as the variant, how does the protein stability index read?
**A.** 2.45

**Q.** For SGQPLPGASVRGLHPVQKVILNYP [P1S], which protein stability index is on record?
**A.** 2.62

**Q.** Which protein stability index does the source give for NGQPLPGASVRGLHPVQKVILNYP [P1N] here?
**A.** 3.63

**Q.** Which protein stability index does the source give for EGQPLPGASVRGLHPVQKVILNYP [P1E] here?
**A.** 3.31

**Q.** For CGQPLPGASVRGLHPVQKVILNYP [P1C], which protein stability index is on record?
**A.** 1.73

**Q.** For YGQPLPGASVRGLHPVQKVILNYP [P1Y], which protein stability index is on record?
**A.** 2.49

**Q.** For VGQPLPGASVRGLHPVQKVILNYP [P1V], which protein stability index is on record?
**A.** 3.25

**Q.** For GGQPLPGASVRGLHPVQKVILNYP [P1G], which protein stability index is on record?
**A.** 2.86

**Q.** For DGQPLPGASVRGLHPVQKVILNYP [P1D], which protein stability index is on record?
**A.** 2.97

**Q.** With QGQPLPGASVRGLHPVQKVILNYP [P1Q] as the variant, how does the protein stability index read?
**A.** 3.47

**Q.** For KGQPLPGASVRGLHPVQKVILNYP [P1K], which protein stability index is on record?
**A.** 3.02

**Q.** Which protein stability index does the source give for IGQPLPGASVRGLHPVQKVILNYP [P1I] here?
**A.** 2.99

**Q.** For LGQPLPGASVRGLHPVQKVILNYP [P1L], which protein stability index is on record?
**A.** 2.78

**Q.** For FGQPLPGASVRGLHPVQKVILNYP [P1F], which protein stability index is on record?
**A.** 3

**Q.** For MGQPLPGASVRGLHPVQKVILNYP [P1M], which protein stability index is on record?
**A.** 3

**Q.** For PGQPAPGASVRGLHPVQKVILNYP [L5A], which protein stability index is on record?
**A.** 3.31

**Q.** Which protein stability index does the source give for PGQPGPGASVRGLHPVQKVILNYP [L5G] here?
**A.** 3.56

**Q.** For PGQPMPGASVRGLHPVQKVILNYP [L5M], which protein stability index is on record?
**A.** 3.44

**Q.** For PGQPHPGASVRGLHPVQKVILNYP [L5H], which protein stability index is on record?
**A.** 3.42

**Q.** With PGQPIPGASVRGLHPVQKVILNYP [L5I] as the variant, how does the protein stability index read?
**A.** 3.34

**Q.** Which protein stability index does the source give for PGQPCPGASVRGLHPVQKVILNYP [L5C] here?
**A.** 2.94

**Q.** With PGQPWPGASVRGLHPVQKVILNYP [L5W] as the variant, how does the protein stability index read?
**A.** 2.94

**Q.** For PGQPFPGASVRGLHPVQKVILNYP [L5F], which protein stability index is on record?
**A.** 2.29

**Q.** For PGQPSPGASVRGLHPVQKVILNYP [L5S], which protein stability index is on record?
**A.** 3.43

**Q.** For PGQPEPGASVRGLHPVQKVILNYP [L5E], which protein stability index is on record?
**A.** 3.15

**Q.** Which protein stability index does the source give for PGQPNPGASVRGLHPVQKVILNYP [L5N] here?
**A.** 3.66

**Q.** With PGQPYPGASVRGLHPVQKVILNYP [L5Y] as the variant, how does the protein stability index read?
**A.** 3.48

**Q.** Which protein stability index does the source give for PGQPRPGASVRGLHPVQKVILNYP [L5R] here?
**A.** 3.19

**Q.** With PGQPPPGASVRGLHPVQKVILNYP [L5P] as the variant, how does the protein stability index read?
**A.** 3.64

**Q.** Which protein stability index does the source give for PGQPKPGASVRGLHPVQKVILNYP [L5K] here?
**A.** 3.25

**Q.** For PGQPTPGASVRGLHPVQKVILNYP [L5T], which protein stability index is on record?
**A.** 3.88

**Q.** Which protein stability index does the source give for PGQPQPGASVRGLHPVQKVILNYP [L5Q] here?
**A.** 3.95

**Q.** Which protein stability index does the source give for PGQPDPGASVRGLHPVQKVILNYP [L5D] here?
**A.** 3.84
